Assay results as given in US20020076765A1 (IOWA STATE UNIVERSITY RESEARCH FOUNDATION, published 2002).

B1: bovine tumor necrosis factor-alpha (TNF-alpha) (ligand, UniProt Q06599 78-234, looked up)
chain: LRSSSQASSNKPVAHVVADINSPGQLRWWDSYANALMANGVKLEDNQLVVPADGLYLIYSQVLFRGQGCPSTPLFLTHTISRIAVSYQTKVNILSAIKSPCHRETPEWAEAKPWYEPIYQGGVFQLEKGDRLSAEINLPDYLDYAESGQVYFGIIAL
notes: Not purified; The whey samples served as the source of bovine TNF-alpha; also called bovine TNF-α; bovine TNF
B2: soluble bovine tumor necrosis factor receptor-I (TNF-RI) (receptor)
chain: LVPHPGDLEKRESPCPQGKYNHPQNSTICCTKCHKGTYLYNDCPGPGRDTDCRVCAPGTYTALENHLRRCLSCSRCRDEMFQVEISPCVVDRDTVCGCRKNQYREYWGETGFRCLNCSLCPNGTVNIPCQERQDTICHCHMGFFLKGAKCISCHDCKNKECEKLCPTRPSTGKDSQDPGTT

What was measured:
[1] = target: B2; experiment: inferred from the TNF cytotoxicity inhibition assay on WEHI 164 cells; no direct binding assay
[2] = target: B1; experiment: cell-based or functional assay

Binder	binding result [1]	fold potency at blocking bovine TNF-α, against MAb BC9 [2]
B1	binds	–
B2	–	> 2 fold (vs MAb BC9)
